Measurements from PMC11623273 (2024).

Molecular target: T1, soluble HCV E2 ectodomain (sE2) (hepatitis C virus)
T1 chain: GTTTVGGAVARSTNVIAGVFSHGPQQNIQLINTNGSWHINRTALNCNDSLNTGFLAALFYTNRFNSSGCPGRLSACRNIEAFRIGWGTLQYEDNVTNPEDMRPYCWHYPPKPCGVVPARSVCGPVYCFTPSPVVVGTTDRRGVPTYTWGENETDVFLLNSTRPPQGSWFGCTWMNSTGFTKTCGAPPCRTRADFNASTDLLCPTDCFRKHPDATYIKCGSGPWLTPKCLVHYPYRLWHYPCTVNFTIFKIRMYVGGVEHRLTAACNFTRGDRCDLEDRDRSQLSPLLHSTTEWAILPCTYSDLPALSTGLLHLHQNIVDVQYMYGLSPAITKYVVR

B1: Fab fragment of neutralizing antibody HCV1 (Fab, V domains shown)
VH: EVQLLESGGGVVQPGRSLRLSCTASGFTFNNYGMHWVRQTPGKGLEWLAVIWFDENNKYYADSVRGRFTISRDNSKNTLFLQMNSLKTEDTAMYYCARDISLVRDAFIYFDFWGLGTLVTVSS
VL: ELTLTQSPATLSLSPGERATLSCRASQSVSSYLAWYQQKPGQAPRLLIYDASNRATGIPARFSGSGSGTDFTLTISSLEPEDFAVYYCQQRSNWITFGQGTRLEIK
Kd: 294 nM
